We go through two molecules from publication doi:10.1101/2024.07.05.602318 (bioRxiv, 2024).

The assay deals with CLPX-3xFLAG (human, UniProt O76031 65-633). Kind of assay: co-IP.
Sequence of CLPX-3xFLAG (O76031 65-633): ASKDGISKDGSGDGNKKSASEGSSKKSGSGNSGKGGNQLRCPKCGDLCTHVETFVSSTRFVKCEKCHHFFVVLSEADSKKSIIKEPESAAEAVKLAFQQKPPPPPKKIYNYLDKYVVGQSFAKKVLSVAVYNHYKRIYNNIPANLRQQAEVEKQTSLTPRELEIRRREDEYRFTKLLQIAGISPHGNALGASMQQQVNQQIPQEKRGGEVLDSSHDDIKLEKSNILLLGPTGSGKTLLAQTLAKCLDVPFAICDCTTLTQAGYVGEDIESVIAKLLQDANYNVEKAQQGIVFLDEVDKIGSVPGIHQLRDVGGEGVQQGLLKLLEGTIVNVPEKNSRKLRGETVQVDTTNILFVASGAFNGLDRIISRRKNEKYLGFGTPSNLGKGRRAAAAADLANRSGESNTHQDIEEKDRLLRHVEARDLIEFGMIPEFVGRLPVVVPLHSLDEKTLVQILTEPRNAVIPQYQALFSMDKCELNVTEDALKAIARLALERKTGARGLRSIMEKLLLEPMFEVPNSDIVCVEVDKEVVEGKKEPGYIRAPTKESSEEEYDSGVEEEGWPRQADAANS

B1: POLDIP2 H225A, residues 52-368 (natural protein, human, UniProt Q9Y2S7 52-368, looked up)
chain: SSRNRPEGKVLETVGVFEVPKQNGKYETGQLFLHSIFGYRGVVLFPWQARLYDRDVASAAPEKAENPAGHGSKEVKGKTHTYYQVLIDARDCPHISQRSQTEAVTFLANHDDSRALYAIPGLDYVSHEDILPYTSTDQVPIQHELFERFLLYDQTKAPPFVARETLRAWQEKNAPWLELSDVHRETTENIRVTVIPFYMGMREAQNSHVYWWRYCIRLENLDSDVVQLRERHWRIFSLSGTLETVRGRGVVGREPVLSKEQPAFQYSSHVSLQASSGHMWGTFRFERPDGSHFDVRIPPFSLESNKDEKTPPSGLHW
As to B1, the binding result is reported as “binds”.

B2: POLDIP2 (DNA polymerase delta interacting protein 2), residues 52-368 (natural protein, human, UniProt Q9Y2S7 52-368, looked up)
chain: SSRNRPEGKVLETVGVFEVPKQNGKYETGQLFLHSIFGYRGVVLFPWQARLYDRDVASAAPEKAENPAGHGSKEVKGKTHTYYQVLIDARDCPHISQRSQTEAVTFLANHDDSRALYAIPGLDYVSHEDILPYTSTDQVPIQHELFERFLLYDQTKAPPFVARETLRAWQEKNHPWLELSDVHRETTENIRVTVIPFYMGMREAQNSHVYWWRYCIRLENLDSDVVQLRERHWRIFSLSGTLETVRGRGVVGREPVLSKEQPAFQYSSHVSLQASSGHMWGTFRFERPDGSHFDVRIPPFSLESNKDEKTPPSGLHW
As for B2, the binding result is on record as “binds”.
